Laboratory results reported in patent US20200024330A1.

What was measured:
Test in all cases: cell-based or functional assay
[1] = biological target: HIV-1 APV17 envelope glycoprotein (Env) (HIV-1)
[2] = biological target: HIV-1 JR-CSF Env Q337A (HIV-1 isolate JR-CSF) (UniProt P20871)
[3] = biological target: Env of the clade C HIV-1 pseudoviruses of the cross-clade 162-pseudovirus panel (n = 27)
[4] = biological target: HIV-1 APV6 envelope glycoprotein (Env) (HIV-1)
[5] = biological target: HIV-1 JR-CSF Env R327A (HIV-1 isolate JR-CSF) (UniProt P20871)
[6] = biological target: HIV-1 JR-CSF Env T202A (HIV-1 JR-CSF) (UniProt P20871)
[7] = biological target: HIV-1 JR-CSF Env I415A (HIV-1 (isolate JR-CSF)) (UniProt P20871)
[8] = biological target: HIV-1 JR-CSF Env R304A (HIV-1 JR-CSF) (UniProt P20871)
[9] = biological target: HIV-1 JR-CSF Env N411A (HIV-1 (isolate JR-CSF)) (UniProt P20871)
[10] = biological target: Env of the clade D HIV-1 pseudoviruses of the cross-clade 162-pseudovirus panel (n = 25)
[11] = biological target: HIV-1 JR-CSF Env T319A (HIV-1 isolate JR-CSF) (UniProt P20871)
[12] = biological target: HIV-1 JR-CSF Env K305A (HIV-1 JR-CSF) (UniProt P20871)
[13] = biological target: HIV-1 JR-CSF Env I326A (HIV-1 isolate JR-CSF) (UniProt P20871)
[14] = biological target: HIV-1 JR-CSF Env S393A (HIV-1 (isolate JR-CSF)) (UniProt P20871)
[15] = biological target: HIV-1 JR-CSF Env R350A (HIV-1 isolate JR-CSF) (UniProt P20871)
[16] = biological target: HIV-1 JR-CSF Env I309A (HIV-1 JR-CSF) (UniProt P20871)
[17] = biological target: HIV-1 JR-CSF Env Q422A (HIV-1 (isolate JR-CSF)) (UniProt P20871)
[18] = biological target: HIV-1 JR-CSF Env I423A (HIV-1 (isolate JR-CSF)) (UniProt P20871)
[19] = biological target: HIV-1 93UG077 envelope glycoprotein (Env) (HIV-1)
[20] = biological target: HIV-1 JR-CSF Env V292A (HIV-1 JR-CSF) (UniProt P20871)
[21] = biological target: HIV-1 JR-CSF Env D417A (HIV-1 (isolate JR-CSF)) (UniProt P20871)
[22] = biological target: HIV-1 JR-CSF Env I307A (HIV-1 JR-CSF) (UniProt P20871)
[23] = biological target: HIV-1 MGRM-A-010 envelope glycoprotein (Env) (HIV-1)
[24] = biological target: HIV-1 JR-CSF Env S387A (HIV-1 (isolate JR-CSF)) (UniProt P20871)
[25] = biological target: HIV-1 JR-CSF Env T341A (HIV-1 isolate JR-CSF) (UniProt P20871)
[26] = biological target: HIV-1 JR-CSF Env I414A (HIV-1 (isolate JR-CSF)) (UniProt P20871)
[27] = biological target: HIV-1 JR-CSF Env H330A (HIV-1 isolate JR-CSF) (UniProt P20871)
[28] = biological target: Env of the clade B HIV-1 pseudoviruses of the cross-clade 162-pseudovirus panel (n = 31)
[29] = biological target: HIV-1 JR-CSF Env W395A (HIV-1 (isolate JR-CSF)) (UniProt P20871)
[30] = biological target: HIV-1 JR-CSF Env N396A (HIV-1 (isolate JR-CSF)) (UniProt P20871)
[31] = biological target: HIV-1 MGRM-C-026 envelope glycoprotein (Env) (HIV-1)
[32] = biological target: HIV-1 JR-CSF Env N355A (HIV-1 isolate JR-CSF) (UniProt P20871)
[33] = biological target: HIV-1 JR-CSF Env L416A (HIV-1 (isolate JR-CSF)) (UniProt P20871)
[34] = biological target: HIV-1 JR-CSF Env S334A (HIV-1 isolate JR-CSF) (UniProt P20871)
[35] = biological target: HIV-1 JR-CSF Env F210A (HIV-1 JR-CSF) (UniProt P20871)
[36] = biological target: HIV-1 JR-CSF Env R315A (HIV-1 isolate JR-CSF) (UniProt P20871)
[37] = biological target: HIV-1 MGRM-C-028 envelope glycoprotein (Env) (HIV-1)

| Binder | Fold IC50 increase relative to wild-type [2] [fold] | Median IC50 against viruses neutralized with an IC50 <50 µg/ml [3] [µg/mL] | Fold IC50 increase relative to wild-type [5] [fold] | Fold IC50 increase relative to wild-type [6] [fold] | Fold IC50 increase relative to wild-type [7] [fold] | Fold IC50 increase relative to wild-type [8] [fold] | Fold IC50 increase relative to wild-type [9] [fold] | Median IC50 against viruses neutralized with an IC50 <50 µg/ml [10] [µg/mL] | Fold IC50 increase relative to wild-type [11] [fold] | Fold IC50 increase relative to wild-type [13] [fold] | Fold IC50 increase relative to wild-type [14] [fold] | Fold IC50 increase relative to wild-type [15] [fold] | Fold IC50 increase relative to wild-type [16] [fold] | Fold IC50 increase relative to wild-type [17] [fold] | Fold IC50 increase relative to wild-type [18] [fold] | Fold IC50 increase relative to wild-type [20] [fold] | Fold IC50 increase relative to wild-type [21] [fold] | Fold IC50 increase relative to wild-type [22] [fold] | Fold IC50 increase relative to wild-type [24] [fold] | Fold IC50 increase relative to wild-type [25] [fold] | also measured |
| --- | --- | --- | --- | --- | --- | --- | --- | --- | --- | --- | --- | --- | --- | --- | --- | --- | --- | --- | --- | --- | --- |
| PGT-130 (antibody, V domains shown) VH: QVQLQESGPGLVKPAETLSLTCSVSGESINTGHYYWGWVRQVPGKGLEWIGHIHYTTAVLHNPSLKSRLTIKIYTLRNQITLRLSNVTAADTAVYHCVRSGGDILYYYEWQKPHWFSPWGPGIHVTVSS VL: QSALTQPPSASGSLGQSVTISCNGTSSDIGGWNFVSWYQQFPGRAPRLIIFEVNKRPSGVPGRFSGSKSGNSASLTVSGLQSDDEGQYFCSSLFGRWDVVFGGGTKLTVL | 1 | 0.15 | 2.4 | 1.2 | 0.6 | 2.5 | 0.6 | 0.65 | 1.6 | 1.3 | 0.7 | 0.5 | > 77.9 | 1 | > 1000 | 0.9 | 1 | 1000 | 0.7 | 0.8 | IC50 neutralization [1]: > 10 µg/mL; IC50 neutralization [4]: > 10 µg/mL; Fold IC50 increase relative to wild-type [12]: 6.9 fold; IC50 neutralization [19]: > 10 µg/mL; IC50 neutralization [23]: 0.0054 µg/mL; Fold IC50 increase relative to wild-type [26]: 0.7 fold; Fold IC50 increase relative to wild-type [27]: 0.9 fold; Median IC50 against viruses neutralized with an IC50 <50 µg/ml [28]: 0.09 µg/mL; Fold IC50 increase relative to wild-type [29]: 0.6 fold; Fold IC50 increase relative to wild-type [30]: 1 fold; IC50 neutralization [31]: 0.0173 µg/mL; Fold IC50 increase relative to wild-type [32]: 1.3 fold; Fold IC50 increase relative to wild-type [33]: 1 fold; Fold IC50 increase relative to wild-type [34]: 0.5 fold; Fold IC50 increase relative to wild-type [35]: 1.7 fold; Fold IC50 increase relative to wild-type [36]: 0.6 fold; IC50 neutralization [37]: > 10 µg/mL |
| PGT-128 (antibody, V domains shown) VH: QPQLQESGPTLVEASETLSLTCAVSGDSTAACNSFWGWVRQPPGKGLEWVGSLSHCASYWNRGWTYHNPSLKSRLTLALDTPKNLVFLKLNSVTAADTATYYCARFGGEVLRYTDWPKPAWVDLWGRGTLVTVSS VL: QSALTQPPSASGSPGQSITISCTGTSNNFVSWYQQHAGKAPKLVIYDVNKRPSGVPDRFSGSKSGNTASLTVSGLQTDDEAVYYCGSLVGNWDVIFGGGTKLTVL | 0.7 | 0.04 | 2.5 | 1.1 | 0.7 | 0.7 | 0.7 | 0.02 | 0.5 | 1.6 | 1.4 | 1 | 2.8 | 0.2 | 2.6 | 2.1 | 0.5 | 3.7 | 1.2 | 1.3 | Fold IC50 increase relative to wild-type [12]: 1.8 fold; Fold IC50 increase relative to wild-type [26]: 1.4 fold; Fold IC50 increase relative to wild-type [27]: 0.3 fold; Median IC50 against viruses neutralized with an IC50 <50 µg/ml [28]: 0.01 µg/mL; Fold IC50 increase relative to wild-type [29]: 0.8 fold; Fold IC50 increase relative to wild-type [30]: 0.9 fold; Fold IC50 increase relative to wild-type [32]: 0.7 fold; Fold IC50 increase relative to wild-type [33]: 1.1 fold; Fold IC50 increase relative to wild-type [34]: 1.4 fold; Fold IC50 increase relative to wild-type [35]: 0.8 fold; Fold IC50 increase relative to wild-type [36]: 0.4 fold |
| PGT-131 (antibody, V domains shown) VH: QVQLQESGPGLVKPSETLSLTCTVSGDSINTGHHYWGWVRQVPGKGPEWIAHIHYNTAVLHNPALKSRVTISIFTLKNLITLSLSNVTAADTAVYFCVRSGGDILYYIEWQKPHWFYPWGPGILVTVSS VL: QSALTQPPSASGSLGQSLTISCSGTGSDIGSWNFVSWYQQFPGRAPNLIIFEVNRRRSGVPDRFSGSKSGNTASLTVSGLRSEDEAEYFCSSLSGRWDIVFGGGTKVTVL | 1.3 | 0.78 | 19 | 2.7 | 0.6 | 1.5 | 0.6 | 0.85 | 0.9 | 1.7 | 1.1 | 1.3 | 8.8 | 1.9 | > 80 | 1.4 | 1 | > 170 | 1.1 | 1.3 | Fold IC50 increase relative to wild-type [26]: 1 fold; Fold IC50 increase relative to wild-type [27]: 0.5 fold; Median IC50 against viruses neutralized with an IC50 <50 µg/ml [28]: 0.07 µg/mL; Fold IC50 increase relative to wild-type [29]: 0.5 fold; Fold IC50 increase relative to wild-type [30]: 0.9 fold; Fold IC50 increase relative to wild-type [32]: 2.3 fold; Fold IC50 increase relative to wild-type [33]: 1 fold; Fold IC50 increase relative to wild-type [34]: 0.4 fold; Fold IC50 increase relative to wild-type [35]: 1 fold; Fold IC50 increase relative to wild-type [36]: 0.7 fold |
